{"source": "IntAct's records for PubMed 38141762", "parents": {"B1": {"name": "Mitochondrial association factor 1 form b1 (Toxoplasma gondii), A0A140H546 (parent)", "chain": "MWRIWRCRLSFLFATGCLLGALTAGLGSQMSDSVGRNVQAPAGVADASQEAGDVVEERTERTEEQAFALGPPRRHSSESLFPRNASVTARRRRNRRIALIATAVGVAVILAAVYVLRRRRAQRPQDPEPPAPRSVEDPEVLPEEDEASSSLPPPPPPSPPPPPPVEDPLSPESQTVDLSCLSGTTVRFFGPSHHFGGFTPLYDPAPDKRVATVDAGANALFIGGGGLNGQFAKTLLEEAEKHGIRLTPEELSQHSQRIQQSLLRRAVKSPGKLVELDTGVASPVFARSFGFVPVVPGLMWEESEVGPNVGVTFVHILKPEVTPYGNLNNNVMMYTVAPSGAAPDKTYSLAYKTTIAGVIGAAAAYNDTPAGQQYPVQGLRLPLLGGGIFRRNRSLESIGRANAEGTSLAITRYGPNFELQYMYDPSNAALHGLQEAESTYLASMLD"}}}
{"variants_of": "B1", "settings": "with RALGAPA1, Q6GYQ0-1"}
{"variant": "S438R;T439K;L441K", "effect of a mutation on the interaction": "decreasing interaction strength"}
{"variant": "S438R;L441K", "effect of a mutation on the interaction": "decreasing interaction strength"}
{"variants_of": "B1", "settings": "with RALGAPA1, Q6GYQ0-1", "remark": "another data set of the same source"}
{"variant": "S438R;T439K;L441K", "effect of a mutation on the interaction": "with no effect"}
{"variant": "V280R", "effect of a mutation on the interaction": "disrupting interaction strength"}
{"variant": "P283R", "effect of a mutation on the interaction": "disrupting interaction strength"}
{"variant": "S438R;L441K", "effect of a mutation on the interaction": "with no effect"}
{"variant": "A281F", "effect of a mutation on the interaction": "disrupting interaction strength"}
